Patent US5871954A, “Fatty acid analog enzyme substrates” (Washington University, priority 1993, dated 1999)

T1: yeast NMT (Saccharomyces cerevisiae, UniProt P14743)
T1 construct: 11,000-fold purified preparation of yeast NMT; from tissue; host or cells: yeast
T1 sequence (P14743 1-455): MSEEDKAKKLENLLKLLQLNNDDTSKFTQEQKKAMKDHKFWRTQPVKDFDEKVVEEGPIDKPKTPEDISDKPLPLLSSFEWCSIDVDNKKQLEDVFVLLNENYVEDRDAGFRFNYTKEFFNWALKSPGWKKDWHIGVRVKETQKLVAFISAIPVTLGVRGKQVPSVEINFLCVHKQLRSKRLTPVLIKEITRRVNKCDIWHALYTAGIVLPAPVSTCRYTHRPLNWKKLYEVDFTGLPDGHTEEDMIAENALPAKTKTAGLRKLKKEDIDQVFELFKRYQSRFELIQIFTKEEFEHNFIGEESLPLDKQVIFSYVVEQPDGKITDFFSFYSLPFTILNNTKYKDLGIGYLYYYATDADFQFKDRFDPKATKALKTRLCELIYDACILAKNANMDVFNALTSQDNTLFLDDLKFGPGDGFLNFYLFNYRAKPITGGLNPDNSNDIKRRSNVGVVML


Legend:
yeast NMT = molecular target: T1, yeast NMT; experiment: in vitro yeast NMT assay, kinetics of fatty acid analog substrates with iodinated peptide GNAAS[125I]YRR; format: biochemical; settings: Table 2; relative to myristate control 100%; peptide at its Km
Text: (§1) Similar results were obtained using an 11,000-fold purified preparation of yeast NMT [Towler et al., Proc. Natl. Acad. Sci. USA 84, 2708-2712 (1987)].
(§2) Other illustrative examples of the oxy- and thio-substituted fatty acid analog substrate compounds of the invention were synthesized in Examples 6 to 14 and tested in Example 15 as substrates for the yeast NMT.
(§3) For these Examples, each analog synthesized is characterized by ^1 H and 13C NMR as well as mass spectroscopy. The analogs are then characterized kinetically as NMT substrates. Briefly, fatty acid analogs are converted to their CoA esters with Pseudomonas CoA ligase and incubated with the iodinated peptide GNAAS[^125 I]YRR and a source of NMT. […] The radiolabelled peptide is then used at concentrations which will lead to 50% enzyme saturation (i.e., at its Km) for the determination of fatty acid analog kinetic characteristics. Representative analogs with sulfur or oxygen in the backbone of the fatty acid chain serve as good substrates for NMT in vitro and will compete for incorporation of ^3 H labelled myri-state into yeast proteins in vivo. In addition, these analogs differ markedly in hydrophobicity from myri-state as measured both by C18 reverse phase HPLC elution profiles and by 2-octanol/water partition coefficients. The analog CH3 O (CH2)11 COOH, for example, partitions into water 20 fold better than myristate. It is believed that these analogs will be incorporated into mammalian acylproteins in vivo and that their incorporation into these proteins will drastically alter protein processing or targeting. It is further believed that the incorporation of fatty acid analogs of both myristate and palmitate into ester linked and phosphatidyl inositol glycan linked acylproteins will also dramatically alter their properties. Since many viral proteins and oncogenes are acylated, these compounds represent a new class of potential antiviral and antineoplastic agents.

[1] = test system: known yeast myristoylprotein of Mr 20 kDa; experiment: competition for incorporation of [3H]myristate into a yeast myristoylprotein; format: cell-based, Saccharomyces cerevisiae strain BJ405; settings: in words
Method: (§4) Saccharomyces cerevisiae strain BJ405 [MATα, trpl, prbl, prcl, pep4-3; Hemmings et al., Proc. Natl. Acad. Sci. USA 78, 435-439 (1981)] (previously referred to as JR153) was grown to mid-log phase (OD660nm=1.0-1.2) in YPD medium (1% yeast extract/2% Bactopeptone/2% Dextrose) at 30° C. in a rotary shaker water bath. Cells were pretreated with Cerulenin at 2 μg/ml for 15 minutes and then incubated for 20-45 minutes with unlabeled myristate, palmitate or fatty acid analog at 100 μM in the presence of either 5 μM [9,10-^3 H(N)]-myristate (22.4 Ci/mmol) or L-[^35 S]methionine (1106 Ci/mmol) at 30 μCi/ml of culture.
Cells were cooled on ice 5 minutes, pelleted at 10,000×g, then broken and extracted by the method of Towler et al., Proc. Natl. Acad. Sci. USA 83, 2812-2816 (1986). Total protein synthesis was assayed by trichloroacetic acid (TCA) precipitation. Proteins were separated by SDS-12% polyacrylamide gel electrophoresis, and [^3 H]fatty acid incorporation into cellular acyl-proteins was assayed by autoradiography followed by laser densitometry.

[2] = 2-octanol/water partition; format: physicochemical
Method: as §3, with “It is further believed that the incorporation of fatty acid analogs of both myristate and palmitate into ester linked and phosphatidyl inositol glycan linked acylproteins will also dramatically alter their properties. Since many viral proteins and oncogenes are acylated, these compounds represent a new class of potential antiviral and antineoplastic agents.” left out

[3] = test system: Saccharomyces cerevisiae strain BJ405; experiment: toxicity / growth rate of yeast cells; format: cell-based
Method: as §4
Furthermore, 100 μM myristate and 100 μM analog produced a similar modest reduction (10-15%) in total protein synthesis (measured by the incorporation of [^35 S]methionine into TCA precipitable protein) compared to control cells which were not exposed to exogenous fatty acid.

[4] = substrate: CCSCCCCCCCCCCC(=O)O; experiment: in vitro yeast NMT assay, kinetics of fatty acid analog substrates with iodinated peptide GNAAS[125I]YRR; format: biochemical; settings: other: Table 2; peptide at its Km
Text: as §1, §2, §3

[5] = substrate: CCCSCCCCCCCCCC(=O)O; experiment: as above; format: biochemical; settings: other: Table 2; peptide at its Km
Text: as §1, §2, §3

[6] = substrate: CCCOCCCCCCCCCC(=O)O; experiment: as above; format: biochemical; settings: other: Table 2; peptide at its Km
Text: as §1, §2, §3

[7] = substrate: CCCCCCCCCCCCCC(=O)O; experiment: as above; format: biochemical; settings: other: Table 2; peptide at its Km
Text: as §1, §2, §3

[8] = substrate: COCCCCCCCCCCC(=O)O; experiment: as above; format: biochemical; settings: other: Table 2; peptide at its Km
Text: as §1, §2, §3

[9] = substrate: C#CCOCCCCCCCCCC(=O)O; experiment: as above; format: biochemical; settings: other: Table 2; peptide at its Km
Text: as §1, §2, §3

[10] = substrate: CCCCCCCCOCCCCC(=O)O; experiment: as above; format: biochemical; settings: other: Table 2; peptide at its Km
Text: as §1, §2, §3

[11] = substrate: COCCCCCCCCCCCC(=O)O; experiment: as above; format: biochemical; settings: other: Table 2; peptide at its Km
Text: as §1, §2, §3

[12] = substrate: CCOCCCCCCCCCCC(=O)O; experiment: as above; format: biochemical; settings: other: Table 2; peptide at its Km
Text: as §1, §2, §3

[13] = substrate: CCCCOCCCCCCCCCCC(=O)O; experiment: as above; format: biochemical; settings: other: Table 2; peptide at its Km
Text: as §1, §2, §3

[14] = substrate: CCCCCCCCSCCCCC(=O)O; experiment: as above; format: biochemical; settings: other: Table 2; peptide at its Km
Text: as §1, §2, §3

Molecule | Acyl CoA Vm (yeast NMT) | entry into yeast / competition with labeled myristate for incorporation into yeast protein [1] | partition into water vs myristate [2] | growth rates of cells vs 100 μM myristate [3] | toxicity to cells ([3]; 100 μM) | Km [4] | Km [5] | Km [6] | Km [7] | Km [8] | Km [9] | Km [10] | Km [11] | Km [12] | Km [13] | Km [14]
COCCCCCCCCCCCC(=O)O [CH3 O(CH2)11 COOH, 12-(Methoxy)dodecanoic acid] | ~ 110% | can successfully enter yeast and compete with labeled myristate for incorporation into a known myristoylprotein | 20 fold | No difference in the growth rates | does not appear to be toxic to cells | – | – | – | – | – | – | – | – | – | – | –
yeast NMT (Saccharomyces cerevisiae S288C) (protein, 11,000-fold purified preparation of yeast NMT; from tissue; host or cells: yeast) MSEEDKAKKLENLLKLLQLNNDDTSKFTQEQKKAMKDHKFWRTQPVKDFDEKVVEEGPIDKPKTPEDISDKPLPLLSSFEWCSIDVDNKKQLEDVFVLLNENYVEDRDAGFRFNYTKEFFNWALKSPGWKKDWHIGVRVKETQKLVAFISAIPVTLGVRGKQVPSVEINFLCVHKQLRSKRLTPVLIKEITRRVNKCDIWHALYTAGIVLPAPVSTCRYTHRPLNWKKLYEVDFTGLPDGHTEEDMIAENALPAKTKTAGLRKLKKEDIDQVFELFKRYQSRFELIQIFTKEEFEHNFIGEESLPLDKQVIFSYVVEQPDGKITDFFSFYSLPFTILNNTKYKDLGIGYLYYYATDADFQFKDRFDPKATKALKTRLCELIYDACILAKNANMDVFNALTSQDNTLFLDDLKFGPGDGFLNFYLFNYRAKPITGGLNPDNSNDIKRRSNVGVVML | – | – | – | – | – | 1.4 µM | 1.5 µM | 6.1 µM | 0.6 µM | 6.9 µM | 6.5 µM | 1.6 µM | 2 µM | 1.8 µM | 1 µM | 1.5 µM
